Values belong to the molecule of their own block, whether it stands above or below them.
Columns and labels:
[1] = target: 3xFlag-LRRK1 K650A GTP deficient binding mutant, full-length (human) (UniProt Q38SD2); assay: immunogold labelling + negative-stain transmission electron microscopy; purified 3xFlag proteins diluted to 5 ng/ul in 20 mM Tris-HCl pH 7.5, 150 mM NaCl, 0.02% Tween 20 or Triton X-100; uranyl acetate stain; anti-Flag M2 primary and 5 nm gold secondary antibody; distances between gold particles and particle diameters measured
[2] = target: 3xFlag-LRRK1 wild-type (leucine-rich repeat kinase 1), full-length (human) (UniProt Q38SD2); assay: as above
[3] = target: 3xFlag-LRRK2 G2019S pathogenic mutant, full-length (human) (UniProt Q5S007); assay: as above; conditions: remark: other sources report otherwise
[4] = target: 3xFlag-LRRK2 K1906M kinase dead mutant, full-length (human) (UniProt Q5S007); assay: as above
[5] = target: 3xFlag-LRRK2 T1348N GTP deficient binding mutant, full-length (human) (UniProt Q5S007); assay: as above
3xFlag-LRRK2 = target: T1, 3xFlag-LRRK2 (Homo sapiens, UniProt Q5S007); assay: pulldown from cell lysate on ATP-agarose, competed by free ATP; format: binding; conditions: ATP-depleted lysate, pH 7.4, 5 mM MgCl2, 4°C; competed by 1 mM ATP, not GTP; kinase domain site
T1 construct: homodimer
T1 sequence (Q5S007 whole entry, the tested form may be a part): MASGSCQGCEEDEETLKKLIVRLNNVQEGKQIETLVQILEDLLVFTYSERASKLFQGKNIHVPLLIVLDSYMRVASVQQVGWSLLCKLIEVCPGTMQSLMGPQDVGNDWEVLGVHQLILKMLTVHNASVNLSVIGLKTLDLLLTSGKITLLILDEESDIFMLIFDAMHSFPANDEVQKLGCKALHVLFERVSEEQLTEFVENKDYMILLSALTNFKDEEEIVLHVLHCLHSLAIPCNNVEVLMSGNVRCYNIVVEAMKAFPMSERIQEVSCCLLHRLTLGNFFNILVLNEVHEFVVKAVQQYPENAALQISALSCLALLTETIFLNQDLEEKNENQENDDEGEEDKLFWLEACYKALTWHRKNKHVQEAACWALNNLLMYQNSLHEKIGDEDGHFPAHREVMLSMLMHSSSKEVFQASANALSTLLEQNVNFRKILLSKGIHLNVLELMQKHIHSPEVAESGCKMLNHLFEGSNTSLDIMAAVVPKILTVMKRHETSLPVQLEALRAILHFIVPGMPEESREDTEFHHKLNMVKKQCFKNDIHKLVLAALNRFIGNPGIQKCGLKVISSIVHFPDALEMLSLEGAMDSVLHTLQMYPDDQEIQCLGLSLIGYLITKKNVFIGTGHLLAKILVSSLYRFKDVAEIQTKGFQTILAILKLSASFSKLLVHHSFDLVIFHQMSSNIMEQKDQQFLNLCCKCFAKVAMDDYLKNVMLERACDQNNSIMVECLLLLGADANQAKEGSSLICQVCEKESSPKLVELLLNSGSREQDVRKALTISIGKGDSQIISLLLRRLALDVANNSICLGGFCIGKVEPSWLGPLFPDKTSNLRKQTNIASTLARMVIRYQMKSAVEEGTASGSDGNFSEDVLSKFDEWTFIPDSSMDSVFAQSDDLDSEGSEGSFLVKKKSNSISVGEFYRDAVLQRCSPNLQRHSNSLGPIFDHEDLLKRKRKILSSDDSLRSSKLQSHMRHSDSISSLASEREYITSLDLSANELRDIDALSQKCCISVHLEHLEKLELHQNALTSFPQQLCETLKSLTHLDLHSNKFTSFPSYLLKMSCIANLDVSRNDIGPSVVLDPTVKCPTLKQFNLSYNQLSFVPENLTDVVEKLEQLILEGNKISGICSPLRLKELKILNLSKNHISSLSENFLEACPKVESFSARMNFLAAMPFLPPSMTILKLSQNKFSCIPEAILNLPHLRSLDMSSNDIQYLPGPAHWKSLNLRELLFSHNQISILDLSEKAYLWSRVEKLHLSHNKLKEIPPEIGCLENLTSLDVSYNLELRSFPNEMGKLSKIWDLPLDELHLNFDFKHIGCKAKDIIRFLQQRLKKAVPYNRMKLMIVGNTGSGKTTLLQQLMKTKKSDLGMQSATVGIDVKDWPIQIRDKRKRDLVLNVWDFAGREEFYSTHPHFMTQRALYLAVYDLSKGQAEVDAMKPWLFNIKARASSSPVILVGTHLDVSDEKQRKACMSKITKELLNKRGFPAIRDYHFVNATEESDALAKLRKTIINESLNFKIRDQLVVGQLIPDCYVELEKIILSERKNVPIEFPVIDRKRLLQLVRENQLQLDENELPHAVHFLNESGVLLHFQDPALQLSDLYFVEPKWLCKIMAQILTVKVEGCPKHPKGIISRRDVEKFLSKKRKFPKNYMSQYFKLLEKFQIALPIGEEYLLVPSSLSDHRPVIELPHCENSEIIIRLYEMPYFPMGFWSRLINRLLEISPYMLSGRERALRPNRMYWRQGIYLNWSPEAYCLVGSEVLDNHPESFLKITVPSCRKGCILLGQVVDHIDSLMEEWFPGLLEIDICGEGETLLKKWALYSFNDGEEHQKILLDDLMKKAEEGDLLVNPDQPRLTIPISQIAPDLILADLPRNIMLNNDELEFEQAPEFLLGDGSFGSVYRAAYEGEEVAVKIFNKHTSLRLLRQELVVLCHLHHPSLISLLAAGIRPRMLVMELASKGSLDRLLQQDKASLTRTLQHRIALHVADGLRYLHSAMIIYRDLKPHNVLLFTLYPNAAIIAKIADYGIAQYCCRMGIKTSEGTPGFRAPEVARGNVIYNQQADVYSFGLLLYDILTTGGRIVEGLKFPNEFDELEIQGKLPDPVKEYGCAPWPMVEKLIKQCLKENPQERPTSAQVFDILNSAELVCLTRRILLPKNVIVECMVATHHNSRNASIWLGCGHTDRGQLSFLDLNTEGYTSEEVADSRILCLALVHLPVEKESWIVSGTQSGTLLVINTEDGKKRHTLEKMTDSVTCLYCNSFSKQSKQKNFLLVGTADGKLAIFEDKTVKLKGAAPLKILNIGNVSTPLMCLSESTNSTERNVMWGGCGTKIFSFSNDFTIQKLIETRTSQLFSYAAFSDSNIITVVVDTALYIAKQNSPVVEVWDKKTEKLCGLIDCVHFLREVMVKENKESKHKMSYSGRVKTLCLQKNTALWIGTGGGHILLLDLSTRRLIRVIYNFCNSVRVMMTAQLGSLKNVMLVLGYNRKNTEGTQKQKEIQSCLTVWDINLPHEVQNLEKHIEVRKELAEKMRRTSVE

3xFlag-LRRK1 = target: T2, 3xFlag-LRRK1 (Homo sapiens, UniProt Q38SD2); assay: as above; format: binding; conditions: ATP-depleted lysate, pH 7.4, 5 mM MgCl2, 4°C; competed by 1 mM ATP, not GTP; kinase domain site
T2 construct: homodimer
T2 sequence (Q38SD2 28-2015): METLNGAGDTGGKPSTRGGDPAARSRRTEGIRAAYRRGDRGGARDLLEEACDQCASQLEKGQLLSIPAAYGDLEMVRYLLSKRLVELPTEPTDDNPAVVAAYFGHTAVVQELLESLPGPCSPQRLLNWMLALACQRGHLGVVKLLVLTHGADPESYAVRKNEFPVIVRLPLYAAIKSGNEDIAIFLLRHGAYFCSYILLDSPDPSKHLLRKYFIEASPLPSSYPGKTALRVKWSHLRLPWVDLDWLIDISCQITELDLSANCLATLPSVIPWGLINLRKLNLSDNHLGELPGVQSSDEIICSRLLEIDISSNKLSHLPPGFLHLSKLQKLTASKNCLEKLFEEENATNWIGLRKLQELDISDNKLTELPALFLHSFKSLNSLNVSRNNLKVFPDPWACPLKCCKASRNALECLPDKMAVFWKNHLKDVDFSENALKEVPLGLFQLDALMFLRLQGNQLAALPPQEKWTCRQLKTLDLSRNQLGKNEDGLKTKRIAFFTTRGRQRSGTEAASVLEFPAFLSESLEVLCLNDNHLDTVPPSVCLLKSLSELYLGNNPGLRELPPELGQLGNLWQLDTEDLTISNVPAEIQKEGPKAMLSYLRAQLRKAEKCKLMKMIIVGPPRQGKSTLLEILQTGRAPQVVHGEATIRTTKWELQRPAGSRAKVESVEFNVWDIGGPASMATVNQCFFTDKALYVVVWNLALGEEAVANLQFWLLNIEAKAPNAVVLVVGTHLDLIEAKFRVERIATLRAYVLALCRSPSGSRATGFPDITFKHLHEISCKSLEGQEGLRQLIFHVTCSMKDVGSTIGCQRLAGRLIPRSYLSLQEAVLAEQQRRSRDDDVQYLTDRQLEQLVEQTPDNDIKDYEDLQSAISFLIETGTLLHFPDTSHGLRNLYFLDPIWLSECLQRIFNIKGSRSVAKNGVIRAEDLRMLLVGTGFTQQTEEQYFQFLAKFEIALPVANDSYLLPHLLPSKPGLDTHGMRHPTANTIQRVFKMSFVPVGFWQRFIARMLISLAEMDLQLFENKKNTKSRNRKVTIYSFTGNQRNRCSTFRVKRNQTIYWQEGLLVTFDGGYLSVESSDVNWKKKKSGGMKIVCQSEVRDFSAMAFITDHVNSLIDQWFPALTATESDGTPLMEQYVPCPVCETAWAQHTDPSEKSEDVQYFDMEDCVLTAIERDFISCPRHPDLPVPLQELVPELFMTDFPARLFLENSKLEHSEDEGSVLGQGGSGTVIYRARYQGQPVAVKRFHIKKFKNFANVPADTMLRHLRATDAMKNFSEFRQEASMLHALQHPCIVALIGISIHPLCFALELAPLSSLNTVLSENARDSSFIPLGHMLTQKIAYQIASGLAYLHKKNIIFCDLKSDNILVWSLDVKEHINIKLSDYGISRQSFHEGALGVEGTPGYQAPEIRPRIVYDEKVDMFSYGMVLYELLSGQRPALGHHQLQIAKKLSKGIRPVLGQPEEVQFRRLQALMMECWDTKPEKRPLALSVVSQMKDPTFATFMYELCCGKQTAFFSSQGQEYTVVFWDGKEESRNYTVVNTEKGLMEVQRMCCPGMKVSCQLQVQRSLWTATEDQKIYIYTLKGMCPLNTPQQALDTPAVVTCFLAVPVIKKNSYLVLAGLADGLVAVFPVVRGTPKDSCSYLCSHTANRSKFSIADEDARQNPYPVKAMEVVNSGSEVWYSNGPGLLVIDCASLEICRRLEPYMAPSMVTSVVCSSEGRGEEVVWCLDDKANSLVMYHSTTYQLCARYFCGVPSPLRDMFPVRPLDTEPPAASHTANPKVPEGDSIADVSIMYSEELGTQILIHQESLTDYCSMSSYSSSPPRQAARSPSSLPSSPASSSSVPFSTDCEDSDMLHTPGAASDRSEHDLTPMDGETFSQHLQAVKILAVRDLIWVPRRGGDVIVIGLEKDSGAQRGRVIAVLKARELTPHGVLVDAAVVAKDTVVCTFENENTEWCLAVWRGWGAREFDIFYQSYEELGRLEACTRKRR

[6] = target: the molecule itself; assay: immunogold labelling + negative-stain transmission electron microscopy; purified 3xFlag proteins diluted to 5 ng/ul in 20 mM Tris-HCl pH 7.5, 150 mM NaCl, 0.02% Tween 20 or Triton X-100; uranyl acetate stain; anti-Flag M2 primary and 5 nm gold secondary antibody; distances between gold particles and particle diameters measured

stoichiometry N [1]: 2
Molecule: 3xFlag-LRRK1 K650A GTP deficient binding mutant, full-length (from UniProt Q38SD2 1-2015) (enzyme)

stoichiometry N [2]: 2
Molecule: 3xFlag-LRRK1 wild-type (leucine-rich repeat kinase 1), full-length (from UniProt Q38SD2 1-2015) (enzyme)

stoichiometry N [4]: 2
Molecule: 3xFlag-LRRK2 K1906M kinase dead mutant, full-length, Q5S007 1-2527

stoichiometry N [5]: 2
Molecule: 3xFlag-LRRK2 T1348N GTP deficient binding mutant, full-length, Q5S007 1-2527

The remaining lines, values behind:

Molecule: 3xFlag-LRRK2 G2019S pathogenic mutant, full-length, Q5S007 1-2527
stoichiometry N [3]: 2

Molecule: Nc1ncnc2c1ncn2[C@@H]1O[C@H](COP(=O)(O)OP(=O)(O)OP(=O)(O)O)[C@@H](O)[C@H]1O [ATP]
pulldown from cell lysate on ATP-agarose, competed by free ATP (3xFlag-LRRK2): we confirm binding of both proteins to ATP using different ATP agarose beads | pulldown from cell lysate on ATP-agarose, competed by free ATP (3xFlag-LRRK1): we confirm binding of both proteins to ATP using different ATP agarose beads

B1: 3xFlag-LRRK1 kinase dead mutant (K1269M; printed K1269W in the dimer experiment), full-length (enzyme)
chain: METLNGAGDTGGKPSTRGGDPAARSRRTEGIRAAYRRGDRGGARDLLEEACDQCASQLEKGQLLSIPAAYGDLEMVRYLLSKRLVELPTEPTDDNPAVVAAYFGHTAVVQELLESLPGPCSPQRLLNWMLALACQRGHLGVVKLLVLTHGADPESYAVRKNEFPVIVRLPLYAAIKSGNEDIAIFLLRHGAYFCSYILLDSPDPSKHLLRKYFIEASPLPSSYPGKTALRVKWSHLRLPWVDLDWLIDISCQITELDLSANCLATLPSVIPWGLINLRKLNLSDNHLGELPGVQSSDEIICSRLLEIDISSNKLSHLPPGFLHLSKLQKLTASKNCLEKLFEEENATNWIGLRKLQELDISDNKLTELPALFLHSFKSLNSLNVSRNNLKVFPDPWACPLKCCKASRNALECLPDKMAVFWKNHLKDVDFSENALKEVPLGLFQLDALMFLRLQGNQLAALPPQEKWTCRQLKTLDLSRNQLGKNEDGLKTKRIAFFTTRGRQRSGTEAASVLEFPAFLSESLEVLCLNDNHLDTVPPSVCLLKSLSELYLGNNPGLRELPPELGQLGNLWQLDTEDLTISNVPAEIQKEGPKAMLSYLRAQLRKAEKCKLMKMIIVGPPRQGKSTLLEILQTGRAPQVVHGEATIRTTKWELQRPAGSRAKVESVEFNVWDIGGPASMATVNQCFFTDKALYVVVWNLALGEEAVANLQFWLLNIEAKAPNAVVLVVGTHLDLIEAKFRVERIATLRAYVLALCRSPSGSRATGFPDITFKHLHEISCKSLEGQEGLRQLIFHVTCSMKDVGSTIGCQRLAGRLIPRSYLSLQEAVLAEQQRRSRDDDVQYLTDRQLEQLVEQTPDNDIKDYEDLQSAISFLIETGTLLHFPDTSHGLRNLYFLDPIWLSECLQRIFNIKGSRSVAKNGVIRAEDLRMLLVGTGFTQQTEEQYFQFLAKFEIALPVANDSYLLPHLLPSKPGLDTHGMRHPTANTIQRVFKMSFVPVGFWQRFIARMLISLAEMDLQLFENKKNTKSRNRKVTIYSFTGNQRNRCSTFRVKRNQTIYWQEGLLVTFDGGYLSVESSDVNWKKKKSGGMKIVCQSEVRDFSAMAFITDHVNSLIDQWFPALTATESDGTPLMEQYVPCPVCETAWAQHTDPSEKSEDVQYFDMEDCVLTAIERDFISCPRHPDLPVPLQELVPELFMTDFPARLFLENSKLEHSEDEGSVLGQGGSGTVIYRARYQGQPVAVWRFHIKKFKNFANVPADTMLRHLRATDAMKNFSEFRQEASMLHALQHPCIVALIGISIHPLCFALELAPLSSLNTVLSENARDSSFIPLGHMLTQKIAYQIASGLAYLHKKNIIFCDLKSDNILVWSLDVKEHINIKLSDYGISRQSFHEGALGVEGTPGYQAPEIRPRIVYDEKVDMFSYGMVLYELLSGQRPALGHHQLQIAKKLSKGIRPVLGQPEEVQFRRLQALMMECWDTKPEKRPLALSVVSQMKDPTFATFMYELCCGKQTAFFSSQGQEYTVVFWDGKEESRNYTVVNTEKGLMEVQRMCCPGMKVSCQLQVQRSLWTATEDQKIYIYTLKGMCPLNTPQQALDTPAVVTCFLAVPVIKKNSYLVLAGLADGLVAVFPVVRGTPKDSCSYLCSHTANRSKFSIADEDARQNPYPVKAMEVVNSGSEVWYSNGPGLLVIDCASLEICRRLEPYMAPSMVTSVVCSSEGRGEEVVWCLDDKANSLVMYHSTTYQLCARYFCGVPSPLRDMFPVRPLDTEPPAASHTANPKVPEGDSIADVSIMYSEELGTQILIHQESLTDYCSMSSYSSSPPRQAARSPSSLPSSPASSSSVPFSTDCEDSDMLHTPGAASDRSEHDLTPMDGETFSQHLQAVKILAVRDLIWVPRRGGDVIVIGLEKDSGAQRGRVIAVLKARELTPHGVLVDAAVVAKDTVVCTFENENTEWCLAVWRGWGAREFDIFYQSYEELGRLEACTRKRR
stoichiometry N [6]: 2
